Series [1] addresses T1, Sc CTD (Saccharomyces cerevisiae, UniProt P48527 414-492).
T1 sequence: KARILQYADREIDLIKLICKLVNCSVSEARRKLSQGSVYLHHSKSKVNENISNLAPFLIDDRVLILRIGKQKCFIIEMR
The series is described as follows: filter binding; 25C; n=1.6; 100 mM KCl, 5 mM MgCl2, 20 mM Tris-HCl pH 7.5, 5 mM DTT, 0.1 mg/ml BSA, 10% glycerol, 5 pM RNA, 30 min, 25C or 37C; nitrocellulose/nylon filter. Particulars: protein: recombinant; label: 5'-32P.

Series [2] addresses T2, CYT-18 NTDs (Neurospora crassa, UniProt P12063 33-417).
T2 sequence: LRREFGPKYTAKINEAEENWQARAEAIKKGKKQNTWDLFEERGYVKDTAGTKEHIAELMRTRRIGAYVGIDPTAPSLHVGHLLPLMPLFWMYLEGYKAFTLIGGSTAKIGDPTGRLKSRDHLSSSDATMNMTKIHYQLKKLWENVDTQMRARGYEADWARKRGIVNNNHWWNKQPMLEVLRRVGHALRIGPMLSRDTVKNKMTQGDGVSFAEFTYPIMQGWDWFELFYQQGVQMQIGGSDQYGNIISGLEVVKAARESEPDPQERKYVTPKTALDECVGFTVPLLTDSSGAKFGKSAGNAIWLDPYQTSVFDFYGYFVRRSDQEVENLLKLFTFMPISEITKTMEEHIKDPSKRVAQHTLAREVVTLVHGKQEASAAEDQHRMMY
The series is described as follows: filter binding; 25C; 100 mM KCl, 5 mM MgCl2, 20 mM Tris-HCl pH 7.5, 5 mM DTT, 0.1 mg/ml BSA, 10% glycerol, 5 pM RNA, 30 min, 25C or 37C; nitrocellulose/nylon filter. The conditions noted are these: protein: recombinant; tags: N-terminal 6xHis, TEV-cleaved; extra N-terminal Gly; chain copies: 2; label: 5'-32P.

Turning to UUUUUUUUUUUUUUUUUUUUUUUUUUUUUU (ssRNA) [poly(U)30], in series [1], the “apparent K (half saturation)” value worked out at 1000 nM. Moreover, the binding result in series [2] is “no binding”.
